The values that follow are results of earlier work, collected in article PMC3138520.

As a reminder, the Kd is the constant that tells how readily two partners part at equilibrium.

In the data set the target is NRG-1β (Homo sapiens) (UniProt Q02297).
Chain of UniProt Q02297 (Q02297 20-241): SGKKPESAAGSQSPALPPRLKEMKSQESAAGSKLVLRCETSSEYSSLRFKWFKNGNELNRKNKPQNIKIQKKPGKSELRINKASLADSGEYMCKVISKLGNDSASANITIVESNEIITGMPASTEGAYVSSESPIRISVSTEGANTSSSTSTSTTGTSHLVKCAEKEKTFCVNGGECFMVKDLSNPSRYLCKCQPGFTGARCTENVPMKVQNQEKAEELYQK

Take HER3 (from UniProt P21860): the Kd is 10 nM.
